Data taken from US20220025010A1 (ANTAG THERAPEUTICS, published 2022).
*1 amine or outer side, *2 acyl side, *3 side chain or, on linkers, in order; H or OH if unused. Where no end group is shown, it is not given here. Side-chain parts run from the residue outwards. [ ]: non-standard residue; d: D form. The star is where a group is joined. C18 diacid = O=C(O)CCCCCCCCCCCCCCCCC(=O)*; C16 diacid = O=C(O)CCCCCCCCCCCCCCC(=O)*; γGlu = O=C(O)[C@H](CCC(=O)[*:2])N[*:1]; pGlu = O=C1CC[C@@H](C(=O)O)N1; AEEA = NCCOCCOCC(=O)O

T1: human GIP receptor (human, UniProt P48546 22-466)
T1 sequence (looked up): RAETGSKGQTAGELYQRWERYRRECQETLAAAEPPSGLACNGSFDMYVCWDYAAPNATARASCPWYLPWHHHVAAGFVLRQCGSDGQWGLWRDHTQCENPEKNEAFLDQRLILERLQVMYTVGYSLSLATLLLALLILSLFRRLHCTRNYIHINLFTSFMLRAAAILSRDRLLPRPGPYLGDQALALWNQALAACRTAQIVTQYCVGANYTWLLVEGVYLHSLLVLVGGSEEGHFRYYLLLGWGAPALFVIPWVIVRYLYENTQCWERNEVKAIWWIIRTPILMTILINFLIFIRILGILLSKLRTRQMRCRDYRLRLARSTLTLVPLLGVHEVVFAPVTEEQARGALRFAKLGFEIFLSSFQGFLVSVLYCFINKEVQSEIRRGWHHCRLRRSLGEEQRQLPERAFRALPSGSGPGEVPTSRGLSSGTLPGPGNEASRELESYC

B1: AT271 (peptide)
peptide: SGTFISDYSIAMDRIKQQDFVNWLLAQR
HELM: PEPTIDE1{S.G.T.F.I.S.D.Y.S.I.A.M.D.R.I.K.Q.Q.D.F.V.N.W.L.L.A.Q.R}|PEPTIDE2{[O=C(O)CCCCCCCCCCCCCCC(=O)[*:2]].[gGlu].[O=C(COCCOCCN[*:1])[*:2]]}$PEPTIDE1,PEPTIDE2,16:R3-3:R2$$$V2.0; N-terminus assumed
SMILES: CC[C@H](C)[C@H](NC(=O)[C@H](CO)NC(=O)[C@H](Cc1ccc(O)cc1)NC(=O)[C@H](CC(=O)O)NC(=O)[C@H](CO)NC(=O)[C@@H](NC(=O)[C@H](Cc1ccccc1)NC(=O)[C@@H](NC(=O)CNC(=O)[C@@H](N)CO)[C@@H](C)O)[C@@H](C)CC)C(=O)N[C@@H](C)C(=O)N[C@@H](CCSC)C(=O)N[C@@H](CC(=O)O)C(=O)N[C@@H](CCCNC(=N)N)C(=O)N[C@H](C(=O)N[C@@H](CCCCNC(=O)COCCOCCNC(=O)CC[C@H](NC(=O)CCCCCCCCCCCCCCC(=O)O)C(=O)O)C(=O)N[C@@H](CCC(N)=O)C(=O)N[C@@H](CCC(N)=O)C(=O)N[C@@H](CC(=O)O)C(=O)N[C@@H](Cc1ccccc1)C(=O)N[C@H](C(=O)N[C@@H](CC(N)=O)C(=O)N[C@@H](Cc1c[nH]c2ccccc12)C(=O)N[C@@H](CC(C)C)C(=O)N[C@@H](CC(C)C)C(=O)N[C@@H](C)C(=O)N[C@@H](CCC(N)=O)C(=O)N[C@@H](CCCNC(=N)N)C(=O)O)C(C)C)[C@@H](C)CC
B2: AT273 (peptide)
peptide: PGTFISDYSIAMDRIKQQDFVNWLLAQR
HELM: PEPTIDE1{P.G.T.F.I.S.D.Y.S.I.A.M.D.R.I.K.Q.Q.D.F.V.N.W.L.L.A.Q.R}|PEPTIDE2{[O=C(O)CCCCCCCCCCCCCCC(=O)[*:2]].[gGlu].[O=C(COCCOCCN[*:1])[*:2]]}$PEPTIDE1,PEPTIDE2,16:R3-3:R2$$$V2.0; N-terminus assumed
SMILES: CC[C@H](C)[C@H](NC(=O)[C@H](CO)NC(=O)[C@H](Cc1ccc(O)cc1)NC(=O)[C@H](CC(=O)O)NC(=O)[C@H](CO)NC(=O)[C@@H](NC(=O)[C@H](Cc1ccccc1)NC(=O)[C@@H](NC(=O)CNC(=O)[C@@H]1CCCN1)[C@@H](C)O)[C@@H](C)CC)C(=O)N[C@@H](C)C(=O)N[C@@H](CCSC)C(=O)N[C@@H](CC(=O)O)C(=O)N[C@@H](CCCNC(=N)N)C(=O)N[C@H](C(=O)N[C@@H](CCCCNC(=O)COCCOCCNC(=O)CC[C@H](NC(=O)CCCCCCCCCCCCCCC(=O)O)C(=O)O)C(=O)N[C@@H](CCC(N)=O)C(=O)N[C@@H](CCC(N)=O)C(=O)N[C@@H](CC(=O)O)C(=O)N[C@@H](Cc1ccccc1)C(=O)N[C@H](C(=O)N[C@@H](CC(N)=O)C(=O)N[C@@H](Cc1c[nH]c2ccccc12)C(=O)N[C@@H](CC(C)C)C(=O)N[C@@H](CC(C)C)C(=O)N[C@@H](C)C(=O)N[C@@H](CCC(N)=O)C(=O)N[C@@H](CCCNC(=N)N)C(=O)O)C(C)C)[C@@H](C)CC
B3: AT275 (peptide)
peptide: GGTFISDYSIAMDRIK([AEEA-AEEA-γGlu-C16 diacid])QQDFVNWLLAQR-OH
modifications: N-terminus assumed
SMILES: CC[C@H](C)[C@H](NC(=O)[C@H](CO)NC(=O)[C@H](Cc1ccc(O)cc1)NC(=O)[C@H](CC(=O)O)NC(=O)[C@H](CO)NC(=O)[C@@H](NC(=O)[C@H](Cc1ccccc1)NC(=O)[C@@H](NC(=O)CNC(=O)CN)[C@@H](C)O)[C@@H](C)CC)C(=O)N[C@@H](C)C(=O)N[C@@H](CCSC)C(=O)N[C@@H](CC(=O)O)C(=O)N[C@@H](CCCNC(=N)N)C(=O)N[C@H](C(=O)N[C@@H](CCCCNC(=O)COCCOCCNC(=O)COCCOCCNC(=O)CC[C@H](NC(=O)CCCCCCCCCCCCCCC(=O)O)C(=O)O)C(=O)N[C@@H](CCC(N)=O)C(=O)N[C@@H](CCC(N)=O)C(=O)N[C@@H](CC(=O)O)C(=O)N[C@@H](Cc1ccccc1)C(=O)N[C@H](C(=O)N[C@@H](CC(N)=O)C(=O)N[C@@H](Cc1c[nH]c2ccccc12)C(=O)N[C@@H](CC(C)C)C(=O)N[C@@H](CC(C)C)C(=O)N[C@@H](C)C(=O)N[C@@H](CCC(N)=O)C(=O)N[C@@H](CCCNC(=N)N)C(=O)O)C(C)C)[C@@H](C)CC
B4: AT279 (peptide)
peptide: PGTFISDYSIAMDRIK([AEEA-AEEA-γGlu-C16 diacid])QQDFVNWLLAQR-OH
modifications: N-terminus assumed
SMILES: CC[C@H](C)[C@H](NC(=O)[C@H](CO)NC(=O)[C@H](Cc1ccc(O)cc1)NC(=O)[C@H](CC(=O)O)NC(=O)[C@H](CO)NC(=O)[C@@H](NC(=O)[C@H](Cc1ccccc1)NC(=O)[C@@H](NC(=O)CNC(=O)[C@@H]1CCCN1)[C@@H](C)O)[C@@H](C)CC)C(=O)N[C@@H](C)C(=O)N[C@@H](CCSC)C(=O)N[C@@H](CC(=O)O)C(=O)N[C@@H](CCCNC(=N)N)C(=O)N[C@H](C(=O)N[C@@H](CCCCNC(=O)COCCOCCNC(=O)COCCOCCNC(=O)CC[C@H](NC(=O)CCCCCCCCCCCCCCC(=O)O)C(=O)O)C(=O)N[C@@H](CCC(N)=O)C(=O)N[C@@H](CCC(N)=O)C(=O)N[C@@H](CC(=O)O)C(=O)N[C@@H](Cc1ccccc1)C(=O)N[C@H](C(=O)N[C@@H](CC(N)=O)C(=O)N[C@@H](Cc1c[nH]c2ccccc12)C(=O)N[C@@H](CC(C)C)C(=O)N[C@@H](CC(C)C)C(=O)N[C@@H](C)C(=O)N[C@@H](CCC(N)=O)C(=O)N[C@@H](CCCNC(=N)N)C(=O)O)C(C)C)[C@@H](C)CC

Target: T1, human GIP receptor
Assay: cell-based or functional assay

| Binder | CisBio cAMP agonism % Efficacy [%] | CisBio cAMP antagonism % inhib [%] | CisBio cAMP antagonism IC50 [µM] | CisBio cAMP antagonism pIC50 | DiscoveRx cAMP agonism Emax | DiscoveRx cAMP antagonism IC50 [µM] | DiscoveRx cAMP antagonism log IC50 [log M] | DiscoveRx cAMP antagonism % inhib [%] |
| --- | --- | --- | --- | --- | --- | --- | --- | --- |
| B1 | 2 | 73 | 0.0858 | 7.1 | 9 | 0.071 | -7.2 |  |
| B2 | 0 |  |  |  | 35 | 0.634 | -6.2 |  |
| [pGlu]GTFISDYSIAMDRIK([AEEA-AEEA-γGlu-C18 diacid])QQDFVNWLLAQR-NH2 [AT381] | 5 | 74 | 0.0136 | 7.9 |  | 0.038 | -7.4 | 100 |
| B3 | 5 | 66 | 0.126 | 6.9 | 5 | 0.043 | -7.4 |  |
| [pGlu]GTFISDYSIAMDRIK([AEEA-AEEA-γGlu-C16 diacid])QQDFVNWLLAQR-NH2 [AT379] | 0 | 95 | 0.0215 | 7.7 |  | 0.008 | -8.1 | 96 |
| [pGlu]GTFISDYSIAMDRIK(C18 diacid)QQDFVNWLLAQR-NH2 [AT391] | 0 | 95 | 0.271 | 6.6 |  | 0.01 | -8 | 100 |
| B4 | 14 | 81 | 0.159 | 6.8 | 17 | 0.019 | -7.7 |  |
